What was measured:
[1] = molecular target: T1, human IL-17A (human, UniProt Q16552 24-155, limits assumed); experiment: cell-based or functional assay
[2] = molecular target: T2, human TNFα (human, UniProt P01375 77-233); experiment: cell-based or functional assay
[3] = molecular target: T3, human serum albumin (human, UniProt P02768 25-609); experiment: SPR (MASS-1), HSA immobilised, trispecific as analyte, pH 7.4
T3 construct: also called HSA
Description: (§1) The binding to human serum albumin (HSA) and cynomolgus serum albumin (CSA) was assessed for purified trispecific molecules by running SPR spectroscopy on a MASS-1 device (Sierra Sensors). HSA was directly immobilized on a high capacity amine sensor chip (Sierra Sensors) and trispecific molecules were injected as analyte using a dose response multicycle kinetic assay with concentrations of the analyte ranging from 0.35 to 90 nM diluted either in running buffer at pH5.5 or pH7.5. Obtained sensorgrams were fitted using the 1:1 binding model. Affinity to CSA was assessed in a similar approach using a CSA immobilized sensor chip.

[4] = molecular target: T1, human IL-17A; experiment: SPR (summary table), affinity to human IL-17, capture setup
Description: (§2) In this experiment, the biotinylated antigens were captured using the Biotin-CAPture kit from Biacore. After each analyte injection cycle the CAP sensor chip was regenerated and new antigen was captured. Trispecific molecules were injected as analyte using a dose response multicycle kinetic assay with concentrations of the analyte ranging from 0.35 to 90 nM diluted in running buffer. Obtained sensorgrams were fitted using the 1:1 binding model.

[5] = molecular target: T2, human TNFα; experiment: cell-based or functional assay; remark: listed apart in the source
[6] = molecular target: T2, human TNFα; experiment: SPR (summary table), affinity to human TNF
Description: as §2

[7] = molecular target: T1, human IL-17A; experiment: competitive ELISA, blocking of IL-17A/IL-17RA interaction (summary table)
Description: (§3) Finally, Tetramethylbenzidine solution was added to develop the plate for 5 to 10 minutes and the reaction was stopped with 1 M HCl. The plate was read at 450 nm and 570 nm (reference wavelength).

[8] = molecular target: T3, human serum albumin; experiment: SPR (MASS-1), trispecific immobilised, HSA injected as last analyte
Description: (§4) All possible sequences of antigen injection were tested resulting in six possible sequences.
(§5) To evaluate concomitant binding of each antigen to trispecific molecules, the binding level relative to the theoretical Rmax was calculated for each injection using the respective ligand and analyte molecular masses and the immobilization level of the trispecific molecules. The average of the maximum binding relative to theoretical Rmax for each antigen was obtained by averaging individual maximum binding relative to theoretical Rmax obtained for the two injections where the respective antigen was injected as first analyte (in the absence of other bound antigens). Next, the binding relative to the theoretical Rmax of each analyte injection was compared to its average maximum binding to calculate the fraction binding obtained in the presence of other bound antigens. […] The binding levels relative to the theoretical Rmax and the average of maximum binding (binding levels in the absence of other antigens) of each antigen were calculated.

[9] = molecular target: T1, human IL-17A; experiment: SPR (MASS-1), trispecific immobilised, antigens injected sequentially
Description: as §4, §5

[10] = molecular target: T2, human TNFα; experiment: as above
Description: as §4, §5

[11] = molecular target: T3, human serum albumin; experiment: as above
Description: as §4, §5

[12] = molecular target: T3, human serum albumin; experiment: SPR (MASS-1), HSA immobilised, trispecific as analyte, pH 5.5
Description: as §1

[13] = molecular target: T1, human IL-17A; experiment: SPR (Biacore T200), biotinylated antigen captured (Biotin-CAPture), trispecific as analyte;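 note: multicycle dose-response kinetics, analyte at 0.35–90 nM in running buffer, CAP chip regenerated with fresh antigen each cycle, sensorgrams fitted to a 1:1 binding model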
Description: as §2

[14] = molecular target: T2, human TNFα; experiment: as above
Description: as §2

[15] = molecular target: T1, human IL-17A; experiment: competitive ELISA: IL-17RA coated, biotinylated IL-17A preincubated with trispecific molecule
Description: as §3

[16] = molecular target: T3, human serum albumin; experiment: SPR (summary table), affinity to HSA at pH 5.5
Description: as §1

[17] = molecular target: T1, human IL-17A; experiment: competitive ELISA: biotinylated human IL-17A preincubated with the trispecific molecule, then binding to coated IL-17RA detected (blocked ligand: IL-17RA) [right panel]
[18] = molecular target: T2, human TNFα; experiment: cell-based or functional assay; remark: listed apart in the source
[19] = molecular target: T4, cynomolgus monkey IL-17A (Macaca fascicularis (cynomolgus monkey)); experiment: SPR (Biacore T200), biotinylated antigen captured (Biotin-CAPture), trispecific as analyte;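 note: multicycle dose-response kinetics, analyte at 0.35–90 nM in running buffer, CAP chip regenerated with fresh antigen each cycle, sensorgrams fitted to a 1:1 binding model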
T4 construct: also called cyno IL-17A; cyno IL17A
Description: as §2

[20] = molecular target: T5, cynomolgus serum albumin (cynomolgus monkey, UniProt A2V9Z4 25-608); experiment: SPR (MASS-1), CSA immobilised, trispecific as analyte, pH 5.5
T5 construct: also called CSA
Description: as §1

[21] = molecular target: T1, human IL-17A; experiment: cell-based or functional assay; remark: listed apart in the source
[22] = molecular target: T5, cynomolgus serum albumin; experiment: SPR (MASS-1), CSA immobilised, trispecific as analyte, pH 7.4
Description: as §1

[23] = molecular target: T1, human IL-17A; experiment: competitive ELISA: biotinylated human IL-17A preincubated with the trispecific molecule, then binding to coated IL-17RA detected (blocked ligand: IL-17RA) [left panel]

rel. IC50 to secukinumab (ng/ml) in HT-29 assay, +HSA [1]	rel. IC50 to secukinumab (ng/ml) in HT-29 assay, -HSA [1]	rel. IC50 to A13 (nM) in HT-29 assay, +HSA [2]	rel. IC50 to A13 (nM) in HT-29 assay, -HSA [2]	Kd [3] [nM]	koff [3] [s⁻¹]	kon [3] [M⁻¹ s⁻¹]	Kd [4] [nM]	rel. IC50 in L929 assay (IC50, A13/IC50, test sample, nM) [5]	Kd [6] [nM]	rel. IC50 (IC50, secukinumab/IC50, test sample, ng/ml) [7]	relative binding level compared to average maximum binding [8] [%]	antigen binding relative to average maximum binding [9] [%]	antigen binding relative to average maximum binding [10] [%]	Kd [12] [nM]	Kd [13] [nM]	Kd [14] [nM]	rel. IC50 to secukinumab (IC50, secukinumab/IC50, test sample, ng/ml) [15]	Kd [16] [nM]	Binder	IC50 in L929 assay, cell viability [5] [nM]	other results
304	44.1	4.6	3.9	1.42	0.00044	310000	0.483	0.4	0.185	10.2	~70	≥ 70	≥ 70	0.799	0.483	0.185	10.2	0.799	A8 (trispecific scDb-scFv) (other, Single chain) DIQMTQSPSSLSASVGDRVTITCQSSESVYSNNQLSWYQQKPGQPPKLLIYDASDLASGVPSRFSGSGSGTDFTLTISSLQPEDFATYYCAGGFSSSSDTAFGGGTKLTVLGGGGGSEVQLVESGGGLVQPGGSLRLSCAASGIDFSTYGISWVRQAPGKGLEWIAYIYPDYGITDYASWVNGRFTISLDNAQNTVYLQMNSLRAEDTAVYYCARSGSYYSRGWGAHYFNLWGQGTLVTVSSGGGGSGGGGSGGGGSGGGGSDIQMTQSPSSLSASVGDRVTINCQASESISSWLAWYQQKPGKRPKLLIYKASTLASGVPSRFSGSGSGTDYTLTISSLQPEDFATYYCQGYYLDSSVDDNVFGGGTKLTVLGGGGGSEVQLVESGGGLVQPGGSLRLSCAASGFSLSSNAMGWVRQAPGKGLEYIGIISVGGFTYYASWAKGRFTISRDNSKNTVYLQMNSLRAEDTATYFCARDRHGGDSSGAFYLWGQGTLVTVSSGGGGSGGGGSDIQMTQSPSSLSASVGDRVTITCQASQTINYWLAWYQQKPGKAPKLLIYRASTLASGVPSRFSGSGSGTDFTLTISSLQPEDFATYYCQNYYYSTSRSYGFGGGTKLTVLGGGGGSGGGGSGGGGSGGGGSEVQLVESGGGLVQPGGSLRLSCAASGFSFSSDYWMCWVRQAPGKGLEWIGCIYAGDVDDTDYASWARGRFTISRDNSKNTVYLQMNSLRAEDTAVYYCARVDGFDITYFDLWGQGTLVTVSS	0.03	antigen binding relative to average maximum binding [11]: ≥ 70%; koff [12]: 0.000375 s⁻¹; kon [12]: 469000 M⁻¹ s⁻¹; koff [13]: 8.36e-05 s⁻¹; kon [13]: 173000 M⁻¹ s⁻¹; koff [14]: 4.06e-05 s⁻¹; kon [14]: 219000 M⁻¹ s⁻¹; IC50 (read off the curve) [17]: ~5 ng/mL; potency to neutralize TNFα compared to A7 [18]: ~2 fold
63	88.9	–	2.4	2.69	–	–	0.575	0.9	0.1	4.9	–	–	–	1.66	0.575	0.1	4.9	1.66	A5 (trispecific tribody, Fab-(scFv)2) (other, Trispecific tribody) light: DIQMTQSPSSLSASVGDRVTINCQASESISSWLAWYQQKPGKRPKLLIYKASTLASGVPSRFSGSGSGTDYTLTISSLQPEDFATYYCQGYYLDSSVDDNVFGGGTKLTVLGRTRTVAAPSVFIFPPSDEQLKSGTASVVCLLNNFYPREAKVQWKVDNALQSGNSQESVTEQDSKDSTYSLSSTLTLSKADYEKHKVYACEVTHQGLSSPVTKSFNRGECGGGGSGGGGSDIQMTQSPSSLSASVGDRVTITCQSSESVYSNNQLSWYQQKPGQPPKLLIYDASDLASGVPSRFSGSGSGTDFTLTISSLQPEDFATYYCAGGFSSSSDTAFGGGTKLTVLGGGGGSGGGGSGGGGSGGGGSEVQLVESGGGLVQPGGSLRLSCAASGFSLSSNAMGWVRQAPGKGLEYIGIISVGGFTYYASWAKGRFTISRDNSKNTVYLQMNSLRAEDTATYFCARDRHGGDSSGAFYLWGQGTLVTVSS heavy: EVQLVESGGGLVQPGGSLRLSCAASGIDFSTYGISWVRQAPGKGLEWIAYIYPDYGITDYASWVNGRFTISLDNAQNTVYLQMNSLRAEDTAVYYCARSGSYYSRGWGAHYFNLWGQGTLVTVSSASTKGPSVFPLAPSSKSTSGGTAALGCLVKDYFPEPVTVSWNSGALTSGVHTFPAVLQSSGLYSLSSVVTVPSSSLGTQTYICNVNHKPSNTKVDKKVEPKSCGGGGSGGGGSDIQMTQSPSSLSASVGDRVTITCQASQTINYWLAWYQQKPGKAPKLLIYRASTLASGVPSRFSGSGSGTDFTLTISSLQPEDFATYYCQNYYYSTSRSYGFGGGTKLTVLGGGGGSGGGGSGGGGSGGGGSEVQLVESGGGLVQPGGSLRLSCAASGFSFSSDYWMCWVRQAPGKGLEWIGCIYAGDVDDTDYASWARGRFTISRDNSKNTVYLQMNSLRAEDTAVYYCARVDGFDITYFDLWGQGTLVTVSS	0.02	Kd [19]: 0.523 nM; Kd [20]: 0.795 nM; potency to neutralize IL-17A compared to A7 [21]: ~2 fold; Kd [22]: 2.47 nM; IC50 (read off the curve) [23]: ~4 ng/mL
64.5	52	1	4.8	1.91	0.000369	193000	0.341	1	0.122	10.6	~70	≥ 70	≥ 70	1.32	0.341	0.122	10.6	1.32	A7 (trispecific scDb-scFv) (other, Single chain; also called scDb-scFv A7) DIQMTQSPSSLSASVGDRVTINCQASESISSWLAWYQQKPGKRPKLLIYKASTLASGVPSRFSGSGSGTDYTLTISSLQPEDFATYYCQGYYLDSSVDDNVFGGGTKLTVLGGGGGSEVQLVESGGGLVQPGGSLRLSCAASGFSFSSDYWMCWVRQAPGKGLEWIGCIYAGDVDDTDYASWARGRFTISRDNSKNTVYLQMNSLRAEDTAVYYCARVDGFDITYFDLWGQGTLVTVSSGGGGSGGGGSGGGGSGGGGSDIQMTQSPSSLSASVGDRVTITCQASQTINYWLAWYQQKPGKAPKLLIYRASTLASGVPSRFSGSGSGTDFTLTISSLQPEDFATYYCQNYYYSTSRSYGFGGGTKLTVLGGGGGSEVQLVESGGGLVQPGGSLRLSCAASGIDFSTYGISWVRQAPGKGLEWIAYIYPDYGITDYASWVNGRFTISLDNAQNTVYLQMNSLRAEDTAVYYCARSGSYYSRGWGAHYFNLWGQGTLVTVSSGGGGSGGGGSDIQMTQSPSSLSASVGDRVTITCQSSESVYSNNQLSWYQQKPGQPPKLLIYDASDLASGVPSRFSGSGSGTDFTLTISSLQPEDFATYYCAGGFSSSSDTAFGGGTKLTVLGGGGGSGGGGSGGGGSGGGGSEVQLVESGGGLVQPGGSLRLSCAASGFSLSSNAMGWVRQAPGKGLEYIGIISVGGFTYYASWAKGRFTISRDNSKNTVYLQMNSLRAEDTATYFCARDRHGGDSSGAFYLWGQGTLVTVSS	0.01	antigen binding relative to average maximum binding [11]: ≥ 70%; koff [12]: 0.000373 s⁻¹; kon [12]: 284000 M⁻¹ s⁻¹; Kd [19]: 0.223 nM; koff [19]: 5.89e-05 s⁻¹; kon [19]: 264000 M⁻¹ s⁻¹; koff [13]: 7.83e-05 s⁻¹; kon [13]: 229000 M⁻¹ s⁻¹; koff [14]: 3.59e-05 s⁻¹; kon [14]: 296000 M⁻¹ s⁻¹; Kd [20]: 0.463 nM; koff [20]: 0.000147 s⁻¹; kon [20]: 318000 M⁻¹ s⁻¹; IC50 (read off the curve) [17]: ~5 ng/mL; Kd [22]: 1.31 nM; koff [22]: 0.000215 s⁻¹; kon [22]: 164000 M⁻¹ s⁻¹

— US20220127350A1 (NUMAB THERAPEUTICS, published 2022)
